{"source": "the RNAGym collection of RNA variant scans (doi:10.7554/elife.80360)", "parents": {"B1": {"name": "Hammerhead Ribozyme (parent)", "chain": "ACCGGAUGUGCUUUCCGGUCUGAUGAGUCCGUGAGGACGAAACAG"}}, "data": [{"variants_of": "B1", "experiment": "self-cleavage, relative activity (ratio to wild type); higher = more cleavage; co-transcriptional", "values": [{"variant": "ACCGGAUGUGCUUUCCGGUCGGAUAAGUCCGUGAGGACGAAACAG", "note": "[U21G G25A]", "self-cleavage": 0.349}, {"variant": "ACCGGAUGUGCUUUCCGGUCUGAUGGGUCCGGGAGGACGAAACAG", "note": "[A26G U32G]", "self-cleavage": 0.412}, {"variant": "ACCGUAUGUGCUUUCCGGUCUGAUGAGUCCGUGAGUACGAAACAG", "note": "[G5U G36U]", "self-cleavage": 0.327}, {"variant": "ACCGGAUGUGCUUUCUGGUCUGAAGAGUCCGUGAGGACGAAACAG", "note": "[C16U U24A]", "self-cleavage": 0.747}, {"variant": "ACCUGAUGUGCUUUCCGGUCUGAUGAGUCCGUGAGGACGAAACAU", "note": "[G4U G45U]", "self-cleavage": 0.446}, {"variant": "ACCGGUUGUGCUUUCCGGUCUGAAGAGUCCGUGAGGACGAAACAG", "note": "[A6U U24A]", "self-cleavage": 0.494}, {"variant": "ACCGGAUGUGCUUUCCGGUUUGAUGAGUCCGUGAGGACGUAACAG", "note": "[C20U A40U]", "self-cleavage": 0.246}, {"variant": "ACCGGAUGUGCUUUCCGGUCUGGUGAGUCCGUGAUGACGAAACAG", "note": "[A23G G35U]", "self-cleavage": 0.316}, {"variant": "ACCGGCUGUGCUUUCCGGUCUGAUGAGUCCGUGAAGACGAAACAG", "note": "[A6C G35A]", "self-cleavage": 0.568}, {"variant": "ACCGGAUGAGCUUUCCGGCCUGAUGAGUCCGUGAGGACGAAACAG", "note": "[U9A U19C]", "self-cleavage": 0.535}, {"variant": "ACCGGAUGUGUUUUCCGGUCUGAUGAGUCCGUGAGGACGAAAGAG", "note": "[C11U C43G]", "self-cleavage": 0.392}, {"variant": "ACCGGAUGUGCUUUCUGGUCUGAUGAGUGCGUGAGGACGAAACAG", "note": "[C16U C29G]", "self-cleavage": 0.69}, {"variant": "ACCGGAUGUGCUUUCCGGUCUGAUGAGGCCGUGAGGAAGAAACAG", "note": "[U28G C38A]", "self-cleavage": 0.64}, {"variant": "ACCGGUUGUGCUUCCCGGUCUGAUGAGUCCGUGAGGACGAAACAG", "note": "[A6U U14C]", "self-cleavage": 1.07}, {"variant": "ACCGGAUGUGCUUUCCGGUCUGAUGAAUCUGUGAGGACGAAACAG", "note": "[G27A C30U]", "self-cleavage": 0.69}, {"variant": "ACCGGAUGUGCUUUCCGGUCCGAUGAGUCGGUGAGGACGAAACAG", "note": "[U21C C30G]", "self-cleavage": 0.403}, {"variant": "ACCGGAUGUGCUUUAGGGUCUGAUGAGUCCGUGAGGACGAAACAG", "note": "[C15A C16G]", "self-cleavage": 0.521}, {"variant": "ACCGGAUGUGCUUUCCGGUCUGAAGAGUCCGUGUGGACGAAACAG", "note": "[U24A A34U]", "self-cleavage": 0.849}, {"variant": "ACCGGAUGUGCUUUCCGGUCUGAUGAAUCCGUGAGAACGAAACAG", "note": "[G27A G36A]", "self-cleavage": 0.401}, {"variant": "ACCGGAUGUGCUUUCCGGUCUGGUGAGUCCGUGAGGACGGAACAG", "note": "[A23G A40G]", "self-cleavage": 0.306}, {"variant": "ACCGGAUGUGCAUUCCGGUCUGAUGAGACCGUGAGGACGAAACAG", "note": "[U12A U28A]", "self-cleavage": 0.873}, {"variant": "ACCGGAUGUGCUUUCCGCUCUGAUGAGUCCGUGAGGACUAAACAG", "note": "[G18C G39U]", "self-cleavage": 0.372}, {"variant": "ACCGGAUGUGCUUUCCUGUCUGAUGAGUCCGUGAGGACUAAACAG", "note": "[G17U G39U]", "self-cleavage": 0.357}, {"variant": "AGCGGAUGUUCUUUCCGGUCUGAUGAGUCCGUGAGGACGAAACAG", "note": "[C2G G10U]", "self-cleavage": 0.379}, {"variant": "ACCGGAUGUGCUUUCCGGUCUGAUGUGUCCGUGAGGACGCAACAG", "note": "[A26U A40C]", "self-cleavage": 0.331}, {"variant": "ACCGGAUGUGCUUUCUGCUCUGAUGAGUCCGUGAGGACGAAACAG", "note": "[C16U G18C]", "self-cleavage": 0.529}, {"variant": "ACCGGAUGUGCUUUCCGGUCUGAUGAGUCCGUGAGGACCAAACAA", "note": "[G39C G45A]", "self-cleavage": 0.359}, {"variant": "CCCGGAUGUGCUUUCCGGUCUGAUGAGUCCGUAAGGACGAAACAG", "note": "[A1C G33A]", "self-cleavage": 0.57}, {"variant": "ACCGGACGUGCUUUCCGGUCUGAUGAGUCCGCGAGGACGAAACAG", "note": "[U7C U32C]", "self-cleavage": 0.949}, {"variant": "ACCGGAUGUGCUUUCCGGUCUGAUGAGUCCGUGAGGUCUAAACAG", "note": "[A37U G39U]", "self-cleavage": 0.362}, {"variant": "ACCGGAUGGGCUUUCCGGUCUGAUGAGUCCUUGAGGACGAAACAG", "note": "[U9G G31U]", "self-cleavage": 0.51}, {"variant": "ACCGAAUGUGCUUUCCGGUCUGAUGACUCCGUGAGGACGAAACAG", "note": "[G5A G27C]", "self-cleavage": 0.61}, {"variant": "ACCGGAUGUGAUUUCCGGUCUGAUGAGUCCGUGAGAACGAAACAG", "note": "[C11A G36A]", "self-cleavage": 0.847}, {"variant": "GCCGGAUGUGCUUUCCGGUCUGAUAAGUCCGUGAGGACGAAACAG", "note": "[A1G G25A]", "self-cleavage": 0.43}, {"variant": "ACCGGAUGUGCUUGCCGGUCUGAUGAGUCCGUGAGGACGAAACAG", "note": "[U14G]", "self-cleavage": 0.77}, {"variant": "ACCGGAUGUGCUUUGCGGUCUGAUGAGUCCGUGAGGACGAUACAG", "note": "[C15G A41U]", "self-cleavage": 0.307}, {"variant": "ACCGUAUGUGCUUUCCGGUCUGAUGAGUCCGUGAGGACGAAACAU", "note": "[G5U G45U]", "self-cleavage": 0.529}, {"variant": "ACCGGUUGUGCUUUCCGGUCUGAUGAAUCCGUGAGGACGAAACAG", "note": "[A6U G27A]", "self-cleavage": 0.614}, {"variant": "ACCGGAUGUGCUUUCCGGUCUGAUGAGUCCGUGAAAACGAAACAG", "note": "[G35A G36A]", "self-cleavage": 0.508}, {"variant": "ACCGGAUGUGCUUUCCGGUCUGAUGAGUCCGUGAGGACGAACCAC", "note": "[A42C G45C]", "self-cleavage": 0.451}, {"variant": "ACCGGAUGUGCUGUCCGGUCUGAGGAGUCCGUGAGGACGAAACAG", "note": "[U13G U24G]", "self-cleavage": 0.654}, {"variant": "ACCGGAGGUGCUUUCCGGUCUGAUGAGUCCGUGAGGACGCAACAG", "note": "[U7G A40C]", "self-cleavage": 0.396}, {"variant": "ACCGGAUGUGCUUUCCGGUCUGAUGAGUCCGUGAGGACGGAAGAG", "note": "[A40G C43G]", "self-cleavage": 0.358}, {"variant": "ACCGGAUGUGCUUUCCGGACUGAUGAGUCCGUCAGGACGAAACAG", "note": "[U19A G33C]", "self-cleavage": 0.291}, {"variant": "ACCGGAUGUGCAUUCCGGUCUGAUGAGUCCGUGAGGACGAAUCAG", "note": "[U12A A42U]", "self-cleavage": 0.313}, {"variant": "ACGGGAUGUGCUUUCCGGCCUGAUGAGUCCGUGAGGACGAAACAG", "note": "[C3G U19C]", "self-cleavage": 0.31}, {"variant": "ACCGGAUGUGCUUUCCGGUCUGAUGAGUCCGUGAGGAUGAAACAC", "note": "[C38U G45C]", "self-cleavage": 0.529}, {"variant": "ACGGGAUGUGCUUUCCGGUCUGAUGAAUCCGUGAGGACGAAACAG", "note": "[C3G G27A]", "self-cleavage": 0.317}, {"variant": "ACCGGAUGUGCUUUCCGGUCUUAUGAGUCCGUGAGGACGACACAG", "note": "[G22U A41C]", "self-cleavage": 0.372}, {"variant": "ACCGGAUGUGCUUUCCGGUCUGAUGAGUCCGUGAGGCCGAAACAC", "note": "[A37C G45C]", "self-cleavage": 0.337}, {"variant": "ACCGGAUGUGCUUUCAGGUCUGAUGAGUCCGAGAGGACGAAACAG", "note": "[C16A U32A]", "self-cleavage": 1.07}, {"variant": "ACCGGAUUUCCUUUCCGGUCUGAUGAGUCCGUGAGGACGAAACAG", "note": "[G8U G10C]", "self-cleavage": 1.07}, {"variant": "ACCGGAUGUGCUUUCCGGUCUGAUGAGUUCGUGAGGACGAAAGAG", "note": "[C29U C43G]", "self-cleavage": 0.319}, {"variant": "ACCGGAUGUUCUUUCCAGUCUGAUGAGUCCGUGAGGACGAAACAG", "note": "[G10U G17A]", "self-cleavage": 0.957}, {"variant": "ACCGGGUGUGCUUUCCGGUCUGAUGAGUCCGUGAGCACGAAACAG", "note": "[A6G G36C]", "self-cleavage": 0.351}, {"variant": "ACCGGAUGUGCUUUCCGGGCUGAUCAGUCCGUGAGGACGAAACAG", "note": "[U19G G25C]", "self-cleavage": 0.359}, {"variant": "ACCGGACGUGCUUUCCGGUCUGACGAGUCCGUGAGGACGAAACAG", "note": "[U7C U24C]", "self-cleavage": 1.24}]}]}
